In this experiment the target is T1, mature myostatin (recombinant, dimeric) (mouse polyprotein used for in-house …, UniProt O08689 268-376).
T1 construct: also called GDF-8; recombinant myostatin
T1 sequence: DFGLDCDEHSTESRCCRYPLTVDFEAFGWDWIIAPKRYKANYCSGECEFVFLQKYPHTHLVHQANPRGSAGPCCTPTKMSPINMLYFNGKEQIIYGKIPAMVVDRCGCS
Description: FORTEbio bio-layer interferometry, myostatin amine-coupled to sensor, 20 nM antibody, 1:1 fit. The protocol:
The affinity of 10B3 mouse parental and H2L2-C91S developability variant for recombinant myostatin was also assessed by FORTEbio™ (bio-layer inferometry) analysis. FORTEbio™ analyses were carried out by antigen capture. Myostatin (in-house, see above at 1.1) was coupled onto amine reactive biosensors by primary amine coupling in accordance with the manufacturer's instructions. Antibodies were then captured onto this surface at 20 nM concentrations. The data was analysed using the evaluation software inherent in the machine and the data analysed using 1:1 fit (see Table 16). Due to the limited number of myostatin molecules bound to the sensor surface and the low antibody concentration, avidity effects are reduced, enabling a more accurate measure of affinity compared to the Biacore analyses. […] However, due to the nature of the binding of the antibodies to myostatin, these values are mainly used for ranking purposes, and the affinity may not be representative of the affinity in vivo.

B1: mouse monoclonal antibody 10B3 (antibody, V domains shown)
VH: EVQLQQSGPELVKPGASVKISCKASGYSFTGYFMHWVKQSHGNILDWIGNIYPYNGVSNYNQRFKAKATLTVDKSSSTAYMELRSLTSEDSAVYYCARRYYYGTGPADWYFDVWGTGTTVTVSS
VL: DIKMTQSPSSMYASLRERVTITCKASQDINSYLSWFQQKPGKSPKTLIYRANRLVDGVPSRFSGSGSGQDYSLTISSLEYEDMGIYYCLQCDEFPLTFGAGTKLELK
notes: Mouse IgG2a/kappa from hybridoma; also called 10B3 mouse parental; 10B3 parental
As to B1, the equilibrium dissociation constant (Kd) amounted to 0.31 nM, the off-rate constant (koff) came out at 0.000131 s⁻¹ and the kon is 424000 M⁻¹ s⁻¹.
